# Key:
# Assay in all cases: purified protein
# Type in all cases: biochemical, Haloferax mediterranei
# purified protein [1] = substrate: CCCCC(=O)C(=O)O; conditions: 0.25 mM NADPH, 4 M KCl, 50 mM HEPES pH 8.0, 22 °C
# purified protein [2] = substrate: NC(=O)C1=CN([C@@H]2O[C@H](COP(=O)(O)OP(=O)(O)OC[C@H]3O[C@@H](n4cnc5c(N)ncnc54)[C@H](O)[C@@H]3O)[C@@H](O)[C@H]2O)C=CC1; conditions: 20 mM 2-ketohexanoic acid, 4 M KCl, 50 mM HEPES pH 8.0, 22 °C, varied: cofactor
# purified protein [3] = substrate: NC(=O)C1=CN([C@@H]2O[C@H](COP(=O)(O)OP(=O)(O)OC[C@H]3O[C@@H](n4cnc5c(N)ncnc54)[C@H](OP(=O)(O)O)[C@@H]3O)[C@@H](O)[C@H]2O)C=CC1; conditions: 4 mM 2-ketohexanoic acid, 4 M KCl, 50 mM HEPES pH 8.0, 22 °C, varied: cofactor
protein,measurement,setting,value
"D2HDH (Haloferax mediterranei ATCC 33500) (protein, homodimer (~66 kDa; 79 kDa by gel filtration); residues 1-308; no tag mentioned) MHIERLAVDESVGRAMPPQRFIEALSDLGVPVEFAGEDEQFGPGDAVASFGHRDAFLDADWVHCIRAGYDEFPVGVYEEAGTYLTNSTGIHGTTVGETVAGYMLTFARRLHAYRDAQHDHAWDLPRYEEPFTLAGERVCVVGLGTLGRGVVDRAAALGMEVVGVRRSGDPVDNVSTVYTPDRLHEAIADARFVVLATPLTDETEGMVAAPEFETMREDASLVNVARGPVVVESDLVAALDSGDIAGAALDVFSEEPLPEDSPLWDFEDVLITPHVSAATSKYHEDVAALIRENIEKIATGDELTNRVV",Km,purified protein [1],460 ± 30 µM
same,Vmax,purified protein [1],2.5 µmol/min/mg
same,kcat,purified protein [1],1.38 ± 0.0333 s⁻¹
same,kcat/Km,purified protein [1],3000 M⁻¹ s⁻¹
same,Km,purified protein [2],97 ± 18 µM
same,Vmax,purified protein [2],4.4 µmol/min/mg
same,kcat,purified protein [2],2.48 ± 0.167 s⁻¹
same,kcat/Km,purified protein [2],25600 M⁻¹ s⁻¹
same,Km,purified protein [3],14 ± 4 µM
same,Vmax,purified protein [3],2.5 µmol/min/mg
same,kcat,purified protein [3],1.38 ± 0.0667 s⁻¹
same,kcat/Km,purified protein [3],98800 M⁻¹ s⁻¹
